Experimental data as given in patent US20230105029A1 (CHIA TAI TIANQING PHARMACEUTICAL GROUP, published 2023).
Where a chain is given by its changes, count along the chain named. Each block holds one binder with its values, some of them ahead of it.

Experiments:
[1] = biological target: human IL4Rα expressed on HEK293T-IL4Rα-STAT6-STAT6LUC-LB2 cells (human, UniProt P24394 26-825); assay: cell-based or functional assay
[2] = biological target: T1, human IL4Rα expressed on 293F-IL4Rα cells (human, UniProt P24394 26-825); assay: flow cytometry, 293F-IL4Rα cells
T1 construct: whole, on cells; also called cell surface human IL4Rα
Procedure: (§1) Then, 2×10⁵ cells per well in 96 well-plates were incubated in 100 μL of the anti-IL4Rα antibodies or controls of various concentrations (starting at 80 nM with a 4-fold serial dilution) in FACS buffer for 40 minutes on ice. […] Following an incubation of 40 minutes at 4° C. in dark, cells were washed three times and resuspended in FACS buffer. Fluorescence was measured using a Becton Dickinson FACS Canto II-HTS equipment. Data was analyzed using Graphpad Prism software and EC₅₀ values were reported.

[3] = biological target: T1, human IL4Rα expressed on 293F-IL4Rα …; assay: flow cytometry on 293F-IL4Rα cells
Procedure: as §1

[4] = biological target: T2, recombinant human IL4Rα-his protein (in house made) (human, UniProt P24394 26-232, limits assumed); assay: competitive ELISA, blocks biotin-IL4 binding to coated IL4Rα-his
T2 construct: also called Human IL4Ra-his
Procedure: The activity of the anti-IL4Rα antibodies of the disclosure to block IL4-IL4Rα interaction was measured in a competitive ELISA assay. Briefly, 100 μl human IL4Rα-his proteins (prepared in-house with SEQ ID NO: 57) were coated on 96-well micro plates at 2 μg/mL in PBS overnight at 4° C. The next day, plates were washed with wash buffer (PBS+0.05% w/v Tween-20, PBST), and blocked with 5% w/v non-fatty milk in PBST for 2 hours at 37° C. Plates were then washed again using wash buffer.
(§2) Serially diluted anti-IL4Rα antibodies or the controls (starting at 80 nM with a 4-fold serial dilution) in 2.5% w/v non-fatty milk in PBST, 100 μl per well, were added to the IL4Rα bound plates, and incubated with the human IL4Rα-his proteins at 37° C. for 40 minutes. Plates were washed 4 times using wash buffer, and then added and incubated for 40 minutes at 37° C. with 100 μl/well of 0.56 nM biotin-labeled human IL4 protein (Sino biological inc., Cat #11846-HNAE). Plates were washed again using wash buffer. Thereafter, the plates were added with 100 μl/well of streptavidin conjugated HRP (1:10000 dilution in PBST buffer, Jackson Immunoresearch, Cat #016-030-084) and incubated for 40 minutes at 37° C. Plates were washed again using wash buffer. Finally, TMB was added and the reaction was stopped using 1M H₂SO₄, and the absorbance was read at 450 nm. Data was analyzed using Graphpad Prism software and IC₅₀ values were reported.

[5] = biological target: T2, recombinant human IL4Rα-his protein (in …); assay: capture ELISA: antibody captured on anti-IgG Fc plate, biotin human IL4Rα-his detected
Procedure: Plates were washed once with wash buffer (PBS+0.05% w/v Tween-20, PBST) and then blocked with 200 μl/well blocking buffer (5% w/v non-fatty milk in PBST) for 2 hours at 37° C. Plates were washed again and incubated with 100 μl/well serially diluted anti-IL4Rα antibodies of the disclosure, the benchmark or negative control hIgG (human immunoglobulin (pH4) for intravenous injection, Hualan Biological Engineering Inc.) (5-fold dilution in 2.5% w/v non-fatty milk in PBST, starting at 66.7 nM) for 40 minutes at 37° C., and then washed 4 times again. Plates containing captured anti-IL4Rα antibodies were incubated with biotin-labeled human IL4Rα-his protein (in house made with SEQ ID NO: 57, 0.14 nM in 2.5% w/v non-fatty milk in PBST, 100 μl/well) for 40 minutes at 37° C., washed 4 times, and incubated with streptavidin conjugated HRP (1:10000 dilution in PBST, Jackson Immuno Research, Cat #016-030-084, 100 μl/well) for 40 minutes at 37° C. After a final wash, plates were incubated with 100 μl/well ELISA substrate TMB (Innoreagents, Cat #TMB-S-002). The reaction was stopped in 10 minutes at 25° C. with 50 μl/well 1M H₂SO₄, and the absorbance was read at 450 nm. Data was analyzed using Graphpad Prism software and EC₅₀ values were reported.

[6] = biological target: T1, human IL4Rα expressed on 293F-IL4Rα …; assay: flow cytometry, 293F-IL4Rα cells; remark: listed apart in the source
Procedure: as §1

[7] = biological target: T1, human IL4Rα expressed on 293F-IL4Rα …; assay: flow cytometry on 293F-IL4Rα cells; remark: listed apart in the source
[8] = biological target: T2, recombinant human IL4Rα-his protein (in …); assay: SPR (Biacore), antibody captured, IL4Rα-his flowed
[9] = biological target: T2, recombinant human IL4Rα-his protein (in …); assay: competitive ELISA: coated human IL4Rα-his, blocked ligand biotin human IL4
[10] = biological target: T2, recombinant human IL4Rα-his protein (in …); assay: capture ELISA, biotin-IL4Rα-his
[11] = biological target: T3, cynomolgus monkey IL4Rα-his protein (cynomolgus monkey, UniProt A0A2K5V580 33-239); assay: indirect ELISA, coated cyno IL4Rα-his
T3 construct: Bought protein; also called Cynomolgus IL4Rα; Cyno-IL4Rα-his; not shown: his tag

[12] = biological target: T2, recombinant human IL4Rα-his protein (in …); assay: competitive ELISA, blocks biotin-IL4 binding to coated IL4Rα-his; remark: listed apart in the source
Procedure: as §2

B1: mouse antibody B1D2F7D3B5 (antibody, V domains shown)
VH: EVKLVESGGGLVKPGGSLKLSCAASGFTFSSYAMSWVRQTPEKRLEWVASISSGDSTYYLDSVKGRFTISRDNAMNILYLQMSSLRSEDTAVYYCERSGGSAPYWGQGTLVSVSA
VL: QIVLTQSPAIMSASPGEMVTISCSASSSVSYMYWYQQKPGSSPKPWIYRTSNLASGVPARFSGSGSGTSYSLTISSMEAEDAATYYCQQYHSFPLTFGAGTKLELK
notes: Mouse hybridoma mAb
- Inhibition on IL4 induced STAT6 phosphorylation (IC50, nM) [1]: 0.17 nM
- Inhibition on IL13 induced STAT6 phosphorylation (IC50, nM) [1]: 0.48 nM
- EC50 [2]: 0.25 nM
- EC50 [3]: 0.246 nM
- IC50 [4]: 1.8 nM
- EC50 [5]: 0.0644 nM

B2: mouse antibody B9D1D11F8D8 (antibody, V domains shown)
VH: B1 VH with M75R, M82V, V92M, S112T
VL: B1 VL with E17D, S30N
notes: Mouse hybridoma mAb
- Inhibition on IL4 induced STAT6 phosphorylation (IC50, nM) [1]: 0.23 nM
- Inhibition on IL13 induced STAT6 phosphorylation (IC50, nM) [1]: 0.36 nM
- EC50 [2]: 0.22 nM
- EC50 [3]: 0.221 nM
- IC50 [4]: 2.88 nM
- EC50 [5]: 0.0703 nM

B3: mouse antibody C2C1A1A1 (antibody, V domains shown)
VH: EVQLVESGGGLVQPGGSLKLSCAASGFTFSTYGMSWVRQTPDKRLELVATINSNGGSTSYPDSVKGRFTISRDNAKNTLYLQMSSLKSEDTAMFYCARFFRFRNAMDYWGQGTSVTVSS
VL: DIQMTQSPASLSASVGETVTITCRTSENIYSYLAWYQQKQGKSPQFLVYNAKTLAEGVPSRFSGSGSGTQFSLNINSLQSEDFGSYYCQHYYGPPTWTFGGGTKLEIK
notes: Mouse hybridoma mAb; also called Mouse C2C1A1A1
- Inhibition on IL4 induced STAT6 phosphorylation (IC50, nM) [1]: 0.16 nM
- Inhibition on IL13 induced STAT6 phosphorylation (IC50, nM) [1]: 0.23 nM
- EC50 [2]: 0.16 nM
- EC50 [6]: 0.31 nM
- EC50 [3]: 0.159 nM
- EC50 [7]: 0.307 nM
- Kd [8]: 0.119 nM
- IC50 [4]: 0.81 nM
- IC50 [9]: 1.89 nM
- EC50 [5]: 0.0759 nM

The remaining lines, values ahead:

- EC50 [10]: 0.05 nM
- EC50 [6]: 0.63 nM
- EC50 [11]: 0.6 nM
- EC50 [7]: 0.63 nM
- Kd [8]: 0.522 nM
- IC50 [12]: 2.46 nM
- IC50 [9]: 3.12 nM
B4: chimeric antibody C2C1A1A1 (antibody, human IgG4 S228P, kappa, V domains shown)
VH: B3 VH
VL: DIQMTQSPASLSASVGETVTITCRTSENIYSYLAWYQQKQGKSPQFLVYNAKTLAEGVPSRFSGSGSGTQFSLNINSLQSEDFGSYYCQHYYGPPTWTFGGGTKLEIKR
notes: Mouse variable domains on human IgG4/kappa; also called Chimeric C2C1A1A1; chC2C1A1A1

- Inhibition on IL4 induced STAT6 phosphorylation (IC50, nM) [1]: 0.17 nM
- Inhibition on IL13 induced STAT6 phosphorylation (IC50, nM) [1]: 0.31 nM
- EC50 [2]: 0.18 nM
- EC50 [3]: 0.183 nM
- IC50 [4]: 0.73 nM
- EC50 [5]: 0.129 nM
B5: mouse antibody C2B2F7B7 (antibody, V domains shown)
VH: B3 VH with S59N, F94Y, F102I
VL: B3 VL with T25A, N74K, S80P, P94T
notes: Mouse hybridoma mAb

- Inhibition on IL4 induced STAT6 phosphorylation (IC50, nM) [1]: 0.23 nM
- Inhibition on IL13 induced STAT6 phosphorylation (IC50, nM) [1]: 0.47 nM
- EC50 [10]: 0.21 nM
- EC50 [2]: 0.25 nM
- EC50 [6]: 0.41 nM
- EC50 [11]: 0.5 nM
- EC50 [3]: 0.251 nM
- EC50 [7]: 0.412 nM
- Kd [8]: 2.98 nM
- IC50 [4]: 0.81 nM
- IC50 [12]: 1 nM
- IC50 [9]: 1.64 nM
- EC50 [5]: 0.0393 nM
B6: mouse antibody B8G11F2B7G5E8 (antibody, V domains shown)
VH: EVQLQQSGADLVRPGASVKLSCTASGFNIKDTYMHWVKQRPEQGLEWVGRIDPTNGYTIYASKFQGKATITADTSSNTAYMQLSSLTSGDTAVYHCVSRRPWFAYWGQGTLVTVSA
VL: DILMTQTPLSLPVSLGAQASISCRSSQSIVHSNGNTYLEWYLQKPGQSPKLLIYKVTNRFSGVPDRFSGSGSGTDFTLKISRVEAEDLGIYYCFQGSHVPYTFGGGTKLEIK
notes: Mouse hybridoma mAb; also called Mouse B8G11F2B7G5E8; mAb B8G11F2B7G5E8

- EC50 [10]: 0.32 nM
- EC50 [6]: 0.78 nM
- EC50 [11]: 1.06 nM
- EC50 [7]: 0.775 nM
- Kd [8]: 2.99 nM
- IC50 [12]: 1.42 nM
- IC50 [9]: 1.82 nM
B7: chimeric antibody B8G11F2B7G5E8 (antibody, human IgG4 S228P, kappa, V domains shown)
VH: B6 VH
VL: DILMTQTPLSLPVSLGAQASISCRSSQSIVHSNGNTYLEWYLQKPGQSPKLLIYKVTNRFSGVPDRFSGSGSGTDFTLKISRVEAEDLGIYYCFQGSHVPYTFGGGTKLEIKR
notes: Mouse variable domains on human IgG4/kappa; also called Chimeric B8G11F2B7G5E8; chB8G11F2B7G5E8
